Experimental findings from US20190175751A1 (UNIVERSITY OF UTAH RESEARCH FOUNDATION, published 2019) are described below.

The target in this test is T1, FITC-HSA-MORF2 (human serum albumin grafted with multiple copies of morpholino MORF2, FITC-labelled) (human, UniProt P02768 25-609, a fraction of the amino groups converted with SM-(PEG)x to maleimido groups and carrying MORF2 via thioether bonds; FITC label).
T1 construct: mature; also called HSA-(MORF2)x; Nanoconjugate 2A
The test is described as follows: confocal microscopy on CD20-expressing Raji cells, without Cy5-Fab′RTX-MORF1. The text has this: Thus, we conducted in vitro confocal microscopy study, using CD20-expressing human NHL Raji B cell line (FIG. 7).

B1: CD20 on human Burkitt's B-cell non-Hodgkin's lymphoma Raji cells (receptor, UniProt P11836 1-297, looked up)
chain: MTTPRNSVNGTFPAEPMKGPIAMQSGPKPLFRRMSSLVGPTQSFFMRESKTLGAVQIMNGLFHIALGGLLMIPAGIYAPICVTVWYPLWGGIMYIISGSLLAATEKNSRKCLVKGKMIMNSLSLFAAISGMILSIMDILNIKISHFLKMESLNFIRAHTPYINIYNCEPANPSEKNSPSTQYCYSIQSLFLGILSVMLIFAFFQELVIAGIVENEWKRTCSRPKSNIVLLSAEEKKEQTIEIKEEVVGLTETSSQPKNEEDIEIIPIQEEEEEETETNFPEPPQDQESSPIENDSSP
notes: whole, on cells; also called CD20 antigen; CD20 receptor
For the molecule B1, the binding result is given as “no binding”.
